Our source for the Kd values is US20210395394A1.

The assay addresses Pan-species-specific antigen Plasmodium Lactate DeHydrogenase (Pan-PLDH) protein. Nature of the assay: indirect ELISA at four coating concentrations, KD calculated from half-maximal OD.

As a reminder, the Kd is a measure of binding affinity in units of concentration.

Where a chain is given by its changes, count along the chain named.

B1: WT 1-6 (antibody, mouse IgG2b, kappa, V domains shown)
VH: QVQLQQPGAELVRPGASVKLSCKASGTSFTNYFMNWVKQRPGQGLEWIGMINPSDSETRLNQKFKDKATLTVDKSSSTAYMQLSSLTAEDSAVYYCARSGDFYTYYWDYWGQGTTLTVSS
VL: DIQLTQSPASLSASVGETVTITCRGSGNIHNYIAWYQQKQGKSPQLLVYNAKTVADGVPSRFSGSGSGTQYSLKINSLQPEDFGSYYCQSFWSSYTFGGGTKLEIKR
In the case of B1, the Kd is 1.56 nM.

B2: Mutation 1-27 (antibody, mouse IgG2b, kappa, V domains shown)
VH: B1 VH with T27Y, F33W, N52H, D55E, L60I, R98K, D101E, Y105S, W107F
VL: B1 VL with S26T, I29V, I33L, K52R, V54L, S94T
For the molecule B2, the Kd was 0.427 nM.

B3: Mutation 1-20 (antibody, mouse IgG2b, kappa, V domains shown)
VH: B1 VH with T27S, F33W, N52H, L60V, Y105T, W107F
VL: B1 VL with S26T, I29V, I33L, S90T, S94T
As for B3, the dissociation constant Kd was 0.204 nM.

B4: Mutation 1-35 (antibody, mouse IgG2b, kappa, V domains shown)
VH: B1 VH with T27S, F33W, N52H, D55E, L60V, D101E, Y105T, W107F
VL: B1 VL with I29L, I33L, K52R, V54I, S90Y, S94T
B4: the Kd was 0.424 nM.

B5: Mutation 1-25 (antibody, mouse IgG2b, kappa, V domains shown)
VH: B1 VH with F33W, N52H, R98K, W107F
VL: B1 VL with S26T, I29L, I33L, V54I, S94T
Take B5: the Kd is 0.493 nM.

B6: Mutation 1-42 (antibody, mouse IgG2b, kappa, V domains shown)
VH: B1 VH with T27Y, F33W, N52H, L60I, Y105S, W107F
VL: B1 VL with S26T, I33L, V54I, S90T, S94T
B6: the equilibrium dissociation constant (Kd) is 0.545 nM.

B7: Mutation 1-32 (antibody, mouse IgG2b, kappa, V domains shown)
VH: B1 VH with F33W, N52H, L60V, Y105T, W107F
VL: B1 VL with S26T, I29V, I33L, V54I, S94T
In the case of B7, the Kd was 0.329 nM.

B8: Mutation 1-12 (antibody, mouse IgG2b, kappa, V domains shown)
VH: B1 VH with T27Y, F33W, N52H, L60I, R98K, Y105S, W107F
VL: B1 VL with I29L, I33L, S90Y, S94T
On to B8, for which the Kd is 0.118 nM.

B9: Mutation 1-18 (antibody, mouse IgG2b, kappa, V domains shown)
VH: B1 VH with F33W, N52H, L60I, Y105S, W107F
VL: B1 VL with S26T, I33L, V54I, S94T
On to B9, for which the Kd is 0.567 nM.

B10: Mutation 1-24 (antibody, mouse IgG2b, kappa, V domains shown)
VH: B1 VH with T27S, F33W, N52H, L60I, R98K, Y105S, W107F
VL: B1 VL with I29L, I33L, V54L, S90T, S94T
With B10, the equilibrium dissociation constant (Kd) is 0.402 nM.

B11: Mutation 1-5 (antibody, mouse IgG2b, kappa, V domains shown)
VH: B1 VH with T27S, F33W, N52H, L60V, R98K, D101E, Y105T, W107F
VL: B1 VL with S26T, I33L, V54L, S94T
With B11, the Kd is 0.532 nM.

B12: Mutation 1-8 (antibody, mouse IgG2b, kappa, V domains shown)
VH: B1 VH with T27Y, F33W, N52H, L60V, Y105T, W107F
VL: B1 VL with S26T, I29V, I33L, V54I, S90Y, S94T
Take B12: the dissociation constant Kd was 0.481 nM.

B13: Mutation 1-21 (antibody, mouse IgG2b, kappa, V domains shown)
VH: B1 VH with F33W, N52H, D55E, L60I, D101E, Y105S, W107F
VL: B1 VL with I29V, I33L, K52R, V54I, S90Y, S94T
B13: the Kd was 0.655 nM.

B14: Mutation 1-11 (antibody, mouse IgG2b, kappa, V domains shown)
VH: B1 VH with T27Y, F33W, N52H, D55E, L60V, D101E, Y105T, W107F
VL: B1 VL with I29L, I33L, K52R, V54I, S90T, S94T
On to B14, for which the Kd is 0.465 nM.

B15: Mutation 1-22 (antibody, mouse IgG2b, kappa, V domains shown)
VH: B1 VH with T27S, F33W, N52H, D55E, D101E, W107F
VL: B1 VL with S26T, I29L, I33L, K52R, V54L, S90T, S94T
Consider B15, for which the Kd was 0.378 nM.

B16: Mutation 1-3 (antibody, mouse IgG2b, kappa, V domains shown)
VH: B1 VH with F33W, N52H, L60I, R98K, D101E, Y105S, W107F
VL: B1 VL with S26T, I29V, I33L, V54I, S90Y, S94T
With B16, the dissociation constant Kd was 0.098 nM.

B17: Mutation 1-9 (antibody, mouse IgG2b, kappa, V domains shown)
VH: B1 VH with T27S, F33W, N52H, D55E, L60I, D101E, Y105S, W107F
VL: B1 VL with I29V, I33L, K52R, V54L, S94T
Turning to B17, the Kd is 0.616 nM.

B18: Mutation 1-41 (antibody, mouse IgG2b, kappa, V domains shown)
VH: B1 VH with T27Y, F33W, N52H, D55E, L60V, R98K, D101E, Y105T, W107F
VL: B1 VL with S26T, I33L, K52R, V54L, S94T
Regarding B18, the Kd is 0.743 nM.

B19: Mutation 1-17 (antibody, mouse IgG2b, kappa, V domains shown)
VH: B1 VH with F33W, N52H, D55E, L60V, R98K, D101E, Y105T, W107F
VL: B1 VL with S26T, I33L, K52R, S90T, S94T
On to B19, for which the dissociation constant (Kd) is 0.37 nM.

B20: WT 1-9 (antibody, mouse IgG2b, kappa, V domains shown)
VH: B1 VH with T27S, D55E, L60I, R98K, D101E
VL: B1 VL with S26T, I29V, K52R, V54L, S90T
Take B20: the Kd was 0.621 nM.

B21: Mutation 1-14 (antibody, mouse IgG2b, kappa, V domains shown)
VH: B1 VH with T27S, F33W, N52H, L60V, R98K, Y105T, W107F
VL: B1 VL with I29V, I33L, V54I, S94T
As to B21, the Kd is 0.488 nM.

B22: Mutation 1-26 (antibody, mouse IgG2b, kappa, V domains shown)
VH: B1 VH with T27Y, F33W, N52H, L60V, R98K, Y105T, W107F
VL: B1 VL with I29V, I33L, S90Y, S94T
For the molecule B22, the Kd is 0.374 nM.

B23: Mutation 1-10 (antibody, mouse IgG2b, kappa, V domains shown)
VH: B1 VH with F33W, N52H, D55E, D101E, W107F
VL: B1 VL with S26T, I29L, I33L, K52R, S90Y, S94T
On to B23, for which the Kd is 0.525 nM.

B24: Mutation 1-23 (antibody, mouse IgG2b, kappa, V domains shown)
VH: B1 VH with T27Y, F33W, N52H, D55E, L60V, D101E, Y105T, W107F
VL: B1 VL with I29L, I33L, K52R, S94T
In the case of B24, the Kd is 0.319 nM.

B25: Mutation 1-1 (antibody, mouse IgG2b, kappa, V domains shown)
VH: B1 VH with T27Y, F33W, N52H, D55E, R98K, W107F
VL: B1 VL with S26T, I29L, I33L, K52R, S90Y, S94T
For B25, the dissociation constant Kd was 0.521 nM.

B26: Mutation 1-34 (antibody, mouse IgG2b, kappa, V domains shown)
VH: B1 VH with T27Y, F33W, N52H, D55E, D101E, W107F
VL: B1 VL with S26T, I29L, I33L, K52R, S94T
Turning to B26, the equilibrium dissociation constant (Kd) was 0.565 nM.

B27: WT 1-7 (antibody, mouse IgG2b, kappa, V domains shown)
VH: B1 VH with T27S, L60V, D101E, Y105S
VL: B1 VL with S26T, I29V, V54L, S90Y
With B27, the Kd was 0.757 nM.

B28: Mutation 1-4 (antibody, mouse IgG2b, kappa, V domains shown)
VH: B1 VH with T27Y, F33W, N52H, R98K, D101E, W107F
VL: B1 VL with I33L, S90T, S94T
Turning to B28, the Kd is 0.596 nM.

B29: Mutation 1-30 (antibody, mouse IgG2b, kappa, V domains shown)
VH: B1 VH with T27S, F33W, N52H, L60I, Y105S, W107F
VL: B1 VL with S26T, I33L, V54L, S90Y, S94T
As for B29, the Kd is 0.198 nM.

B30: Mutation 1-40 (antibody, mouse IgG2b, kappa, V domains shown)
VH: B1 VH with F33W, N52H, D55E, R98K, D101E, W107F
VL: B1 VL with I33L, K52R, V54I, S90T, S94T
In the case of B30, the Kd is 0.439 nM.

B31: Mutation 1-6 (antibody, mouse IgG2b, kappa, V domains shown)
VH: B1 VH with F33W, N52H, L60I, Y105S, W107F
VL: B1 VL with S26T, I33L, V54L, S90T, S94T
B31: the Kd is 0.664 nM.

B32: Mutation 1-31 (antibody, mouse IgG2b, kappa, V domains shown)
VH: B1 VH with T27Y, F33W, N52H, W107F
VL: B1 VL with I33L, S90T, S94T
Take B32: the Kd was 0.514 nM.

B33: Mutation 1-38 (antibody, mouse IgG2b, kappa, V domains shown)
VH: B1 VH with T27Y, F33W, N52H, L60V, R98K, Y105T, W107F
VL: B1 VL with I29V, I33L, V54L, S90T, S94T
For B33, the Kd is 0.613 nM.

B34: WT 1-8 (antibody, mouse IgG2b, kappa, V domains shown)
VH: B1 VH with L60V, R98K, D101E, Y105S
VL: B1 VL with I29V, V54I
Turning to B34, the Kd was 1.36 nM.

B35: Mutation 1-19 (antibody, mouse IgG2b, kappa, V domains shown)
VH: B1 VH with T27Y, F33W, N52H, W107F
VL: B1 VL with I33L, V54L, S90Y, S94T
For the molecule B35, the Kd was 0.329 nM.

B36: Mutation 1-15 (antibody, mouse IgG2b, kappa, V domains shown)
VH: B1 VH with T27S, F33W, N52H, D55E, L60I, R98K, D101E, Y105S, W107F
VL: B1 VL with S26T, I29V, I33L, K52R, S90T, S94T
Turning to B36, the dissociation constant Kd was 0.47 nM.

B37: Mutation 1-36 (antibody, mouse IgG2b, kappa, V domains shown)
VH: B1 VH with F33W, N52H, L60I, R98K, Y105S, W107F
VL: B1 VL with I29L, I33L, S94T
Take B37: the Kd is 0.518 nM.

B38: Mutation 1-7 (antibody, mouse IgG2b, kappa, V domains shown)
VH: B1 VH with T27S, F33W, N52H, W107F
VL: B1 VL with I33L, S94T
Consider B38, for which the Kd was 0.208 nM.

B39: Mutation 1-13 (antibody, mouse IgG2b, kappa, V domains shown)
VH: B1 VH with F33W, N52H, R98K, W107F
VL: B1 VL with S26T, I29L, I33L, V54L, S90T, S94T
On to B39, for which the Kd is 0.531 nM.

B40: Mutation 1-28 (antibody, mouse IgG2b, kappa, V domains shown)
VH: B1 VH with F33W, N52H, D55E, R98K, D101E, W107F
VL: B1 VL with I33L, K52R, V54I, S90Y, S94T
As for B40, the Kd was 0.759 nM.

B41: Mutation 1-16 (antibody, mouse IgG2b, kappa, V domains shown)
VH: B1 VH with T27Y, F33W, N52H, D55E, R98K, D101E, W107F
VL: B1 VL with I33L, K52R, V54L, S94T
Take B41: the Kd is 0.411 nM.

B42: Mutation 1-33 (antibody, mouse IgG2b, kappa, V domains shown)
VH: B1 VH with F33W, N52H, D55E, L60I, D101E, Y105S, W107F
VL: B1 VL with I29V, I33L, K52R, V54L, S90T, S94T
For the molecule B42, the Kd was 0.372 nM.

B43: Mutation 1-39 (antibody, mouse IgG2b, kappa, V domains shown)
VH: B1 VH with T27S, F33W, N52H, D55E, L60I, R98K, D101E, Y105S, W107F
VL: B1 VL with S26T, I29V, I33L, K52R, S90Y, S94T
Turning to B43, the dissociation constant Kd was 0.55 nM.

B44: Mutation 1-29 (antibody, mouse IgG2b, kappa, V domains shown)
VH: B1 VH with T27S, F33W, N52H, D55E, L60V, R98K, D101E, Y105T, W107F
VL: B1 VL with S26T, I33L, K52R, S90T, S94T
Regarding B44, the Kd was 0.411 nM.

B45: Mutation 1-2 (antibody, mouse IgG2b, kappa, V domains shown)
VH: B1 VH with F33W, N52H, D55E, L60V, R98K, Y105T, W107F
VL: B1 VL with I29V, I33L, K52R, V54L, S90T, S94T
Take B45: the Kd was 0.338 nM.

B46: Mutation 1-37 (antibody, mouse IgG2b, kappa, V domains shown)
VH: B1 VH with T27S, F33W, N52H, R98K, W107F
VL: B1 VL with S26T, I29L, I33L, V54I, S90Y, S94T
As for B46, the Kd is 0.52 nM.
